# In patent US20140086913A1 (Gilead, published 2014):
# T1: human DDR2 stably expressed on HEK293 cells (human, UniProt Q16832 22-855)
# T1 construct: whole, on cells; also called hDDR2
# T1 sequence (looked up): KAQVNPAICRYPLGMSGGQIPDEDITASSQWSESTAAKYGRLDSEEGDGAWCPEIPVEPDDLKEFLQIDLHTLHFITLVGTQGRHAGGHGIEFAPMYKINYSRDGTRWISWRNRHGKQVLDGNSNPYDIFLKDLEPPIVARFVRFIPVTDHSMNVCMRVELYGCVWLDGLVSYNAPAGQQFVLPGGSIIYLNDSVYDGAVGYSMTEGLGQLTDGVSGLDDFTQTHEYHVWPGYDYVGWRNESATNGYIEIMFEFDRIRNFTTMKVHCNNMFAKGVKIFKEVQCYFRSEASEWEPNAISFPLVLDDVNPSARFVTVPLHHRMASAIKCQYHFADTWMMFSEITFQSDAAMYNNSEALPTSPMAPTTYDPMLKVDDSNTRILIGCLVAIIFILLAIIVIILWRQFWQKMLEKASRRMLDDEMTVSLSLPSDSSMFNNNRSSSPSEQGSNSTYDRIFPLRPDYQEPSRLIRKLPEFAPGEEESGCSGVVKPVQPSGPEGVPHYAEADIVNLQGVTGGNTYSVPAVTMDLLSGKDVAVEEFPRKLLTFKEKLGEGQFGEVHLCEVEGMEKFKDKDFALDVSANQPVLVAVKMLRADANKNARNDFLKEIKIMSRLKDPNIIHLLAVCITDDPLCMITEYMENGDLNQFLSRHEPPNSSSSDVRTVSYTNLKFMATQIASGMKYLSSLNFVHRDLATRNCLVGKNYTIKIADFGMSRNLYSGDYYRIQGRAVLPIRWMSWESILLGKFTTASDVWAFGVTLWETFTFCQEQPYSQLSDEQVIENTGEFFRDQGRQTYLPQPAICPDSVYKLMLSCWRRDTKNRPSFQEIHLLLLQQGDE
# B1: AB2010 (antibody, V domains shown)
# VH: QVQLKQSGPGLVQPSQSLSITCTVSGFSFTGYGIHWVRQSPGKGLEWLGVIWSGGITDYNAAFISRLSISMDSSKGQVFFKMNSLQANDTAIYYCARRSTTVVADYAMDYWGQGTSVTVSS
# VL: SIVMTQTPKFLLVSAGDRVTITCKASQSVSNDVAWYQQKPGQSPKLLIYYASNRYTGVPDRFTGSGYGTDFTFTINTVQAEDLAVYFCQQDYTSPLTFGAGTKLELKR
# notes: mouse hybridoma mAb
# B2: AB2041 (antibody, V domains shown)
# VH: QVQLHQSGSELAKPGASVKMSCKASGYIFTTYWIHWLKQRPGQGLEWIGFINPDTDYTEYNQKFKDKATLTADKSSNTAYVQLSSLTSEDSAVYYCARGNYGYDGLVYWGLGTLVTVSA
# VL: SIVMTQTPKFLLVSAGDRVTITCKASQSVSTDVAWYQQKPGQSPKLLIYYASNRYTGVPDRFTGSGYGTDFTFTISTVQAEDLAVYFCQQDYNSYTFGGGTKLEIKR
# notes: mouse hybridoma mAb
# B3: AB2092 (antibody, V domains shown)
# VH: QIQLVQSGPELKKSGETVKISCKASGYTFTDYGMNWVKQAPGKGLKWMGWINTYTGKSTYADDFKGRFAFSLETSASTTYLQITNLKNEDMATYFCARWADYFGSSYLFASWGQGTLVTVSA
# VL: DVLMTQTPLSLPVSLGDQASISCRSSQSIVHSDGNTYLEWYLQKPGQSPKLLIYKVSNRFSGVPDRFSGSGSGTDFTLKISRVEAEDLGIYYCFQGSHVPWTFGGGTKLEIKR
# notes: mouse hybridoma mAb
# B4: AB2004 (antibody, V domains shown)
# VH: DVHLQESGPDLVKPSQSLSLTCTVTDYSITSGYGWHWIRQFPGNKLEWMGYIHYGGSTKYNSSLKSRISITRDTSKNQFFLQLKSVTTDDTGTYYCATSGNYGFAYWGQGTLVTVSA
# VL: DIVLTQSPTSLAVSLGQRATMSCRASESVDDYGTSFMHWYQQKPGQPPKLLIYRASNLESGIPARFSGSGSRADFTLSINPVEPDDVATYYCQQSNEDPFTFGSGTKLEIKR
# notes: mouse hybridoma mAb
# B5: AB2078 (antibody, V domains shown)
# VH: EIQLQQSGPELVNPGASVKVSCKASGYSFTDYNMYWVKQSHGKSLEWIGYIDPYNGGTSYNQKFKGKATLTVDKSSSTAFMHLNSLTSEDSAVYYCAREYYGSRLWYFDVWGAGTAVTVSS
# VL: DIVMTQSPSSLAMSVGQKVTMSCKSSQSLLNRNNQKNYLAWYQQKPGQSPKLLVYFASTRESGVPDRFIGSGSGTDFTLTLSSVRAEDLAENFCQQHYSTPFTFGSGTRLEIKR
# notes: mouse hybridoma mAb
# B6: AB2039 (antibody, V domains shown)
# VH: EVQLVESGGGLVQPGGSLKFSCAASGFTFSSYGMSWVRQTPDKRLELVAIINSHGFSTYYPDSVKGRFTISRDNAKNTLYLQMSSLKSEDTAIYYCARGGYGNYGMDYWGQGTSVTVSS
# VL: DIVLTQSPASLAVSLGQRATISCRASESVDSYGNSFMHWYQQKVGQPPKLLIFRASNIESGIPARFSGSGSRTDFTLTINSVEADDVATYYCQQSNEAPYTFGGGTKLEIKR
# notes: mouse hybridoma mAb; also called AB0039
# Molecular target: T2, DDR1ECD-Fc (R&D Systems, Catalog #2396-DR) (human, UniProt Q08345 21-416)
# T2 construct: range 21-416; construct as described for the bought immunogen; also called human ECD-DDR1-Fc; Fc-ECD-DR1; not shown: human IgG1, Pro100-Lys330
# T2 sequence (Q08345 other isoform, or with tags, fused parts or gaps limits assumed): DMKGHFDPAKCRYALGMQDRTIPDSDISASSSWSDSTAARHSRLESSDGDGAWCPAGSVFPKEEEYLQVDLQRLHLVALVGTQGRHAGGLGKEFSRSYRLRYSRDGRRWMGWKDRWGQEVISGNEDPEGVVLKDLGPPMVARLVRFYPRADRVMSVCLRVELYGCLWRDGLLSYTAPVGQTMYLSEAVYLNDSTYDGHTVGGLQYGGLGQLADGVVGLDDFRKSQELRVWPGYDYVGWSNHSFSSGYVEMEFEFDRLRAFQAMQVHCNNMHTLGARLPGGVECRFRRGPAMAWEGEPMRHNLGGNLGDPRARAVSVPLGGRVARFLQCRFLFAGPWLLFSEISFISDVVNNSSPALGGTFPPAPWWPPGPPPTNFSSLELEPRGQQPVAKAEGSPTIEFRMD
# Assay: ELISA, coated antigen, apparent KD
# Procedure, shortened: (§1)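 Plates coated overnight at 4° C with 2 μg/mL purified tagged DDR1 ECD protein, BSA-blocked; serially diluted murine anti-DDR1 mAbs bound 1 hr at room temperature, detected with anti-mouse IgG-HRP and TMB (OD 450). Apparent KD taken as C-parameter of 4-parameter logistic fit of OD versus antibody concentration.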
row,Kd,Binder
1,0.431 nM,B1
2,0.561 nM,B2
3,0.287 nM,B3
4,0.154 nM,B4
5,0.374 nM,B5
6,0.346 nM,B6

# Molecular target: T3, human ECD-DDR1-His protein (human, UniProt Q08345 21-416)
# T3 construct: also called huDDR1-ECD-His; DDR1ECD-6Xhis; not shown: His tag
# T3 sequence (Q08345 21-416): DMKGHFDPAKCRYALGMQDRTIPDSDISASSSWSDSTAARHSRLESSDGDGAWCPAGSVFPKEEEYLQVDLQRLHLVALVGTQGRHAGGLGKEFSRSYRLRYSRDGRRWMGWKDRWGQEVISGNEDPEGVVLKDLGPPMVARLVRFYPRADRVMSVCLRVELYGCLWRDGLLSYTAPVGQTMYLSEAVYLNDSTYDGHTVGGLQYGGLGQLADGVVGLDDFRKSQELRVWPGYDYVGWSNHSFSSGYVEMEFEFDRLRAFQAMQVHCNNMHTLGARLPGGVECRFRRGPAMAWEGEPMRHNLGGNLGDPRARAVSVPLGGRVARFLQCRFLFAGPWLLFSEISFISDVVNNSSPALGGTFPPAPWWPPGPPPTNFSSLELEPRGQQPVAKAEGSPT
# Assay: ELISA, coated antigen, apparent KD
# Procedure, shortened: as §1
row,Kd,Binder
1,0.398 nM,B1
2,0.617 nM,B2
3,0.275 nM,B3
4,0.181 nM,B4
5,0.554 nM,B5
6,0.205 nM,B6

# Molecular target: human DDR1 (isoform B) stably expressed on HEK293 cells (human) (UniProt Q08345)
# Assay: flow cytometry, HEK293/human DDR1, normalized to empty-vector cells
row,MFI,Binder
1,12500 MFI,B2
2,6020 MFI,B3
3,14400 MFI,B4
4,7490 MFI,B5
5,8020 MFI,B6

# Molecular target: T1, human DDR2 stably expressed on HEK293 …
# Assay: flow cytometry, HEK293/hDDR2
# Procedure, shortened: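 Anti-DDR1 mAbs or isotype controls (2 μg per 1×10⁶ cells) were incubated with the stably transfected HEK293 cells at 4 °C for 1 hr, then detected with anti-IgG-PE at 4 °C for 1 hr. Binding was read as flow-cytometry MFI, with vector-only HEK293 background subtracted.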
row,MFI,Binder
1,647 MFI,B1
2,265 MFI,B2
3,133 MFI,B3
4,289 MFI,B4
5,380 MFI,B5
6,143 MFI,B6

# Molecular target: T2, DDR1ECD-Fc (R&D Systems, Catalog …)
# Assay: ELISA
row,Kd,Binder
1,0.561 nM,B2
2,0.287 nM,B3
3,0.154 nM,B4
4,0.374 nM,B5
5,0.346 nM,B6

# Molecular target: DDR1 endogenously expressed on human cancer cell lines (T47D, HCT-116, A431) (human) (UniProt Q08345)
# Assay: flow cytometry, T47D cells
row,MFI,Binder
1,6730 MFI,B1
2,2210 MFI,B2
3,3880 MFI,B3
4,5990 MFI,B4
5,4750 MFI,B5
6,4460 MFI,B6

# Molecular target: DDR1 endogenously expressed on human cancer cell lines (T47D, HCT-116, A431) (human) (UniProt Q08345)
# Assay: flow cytometry, HCT116 cells
row,MFI,Binder
1,1730 MFI,B1
2,1270 MFI,B2
3,1310 MFI,B3
4,1490 MFI,B4
5,1480 MFI,B5
6,1490 MFI,B6

# Molecular target: human DDR1 (isoform B) stably expressed on HEK293 cells (human) (UniProt Q08345)
# Assay: flow cytometry, HEK293/hDDR1
# Target sequence in this assay (Q08345 19-913): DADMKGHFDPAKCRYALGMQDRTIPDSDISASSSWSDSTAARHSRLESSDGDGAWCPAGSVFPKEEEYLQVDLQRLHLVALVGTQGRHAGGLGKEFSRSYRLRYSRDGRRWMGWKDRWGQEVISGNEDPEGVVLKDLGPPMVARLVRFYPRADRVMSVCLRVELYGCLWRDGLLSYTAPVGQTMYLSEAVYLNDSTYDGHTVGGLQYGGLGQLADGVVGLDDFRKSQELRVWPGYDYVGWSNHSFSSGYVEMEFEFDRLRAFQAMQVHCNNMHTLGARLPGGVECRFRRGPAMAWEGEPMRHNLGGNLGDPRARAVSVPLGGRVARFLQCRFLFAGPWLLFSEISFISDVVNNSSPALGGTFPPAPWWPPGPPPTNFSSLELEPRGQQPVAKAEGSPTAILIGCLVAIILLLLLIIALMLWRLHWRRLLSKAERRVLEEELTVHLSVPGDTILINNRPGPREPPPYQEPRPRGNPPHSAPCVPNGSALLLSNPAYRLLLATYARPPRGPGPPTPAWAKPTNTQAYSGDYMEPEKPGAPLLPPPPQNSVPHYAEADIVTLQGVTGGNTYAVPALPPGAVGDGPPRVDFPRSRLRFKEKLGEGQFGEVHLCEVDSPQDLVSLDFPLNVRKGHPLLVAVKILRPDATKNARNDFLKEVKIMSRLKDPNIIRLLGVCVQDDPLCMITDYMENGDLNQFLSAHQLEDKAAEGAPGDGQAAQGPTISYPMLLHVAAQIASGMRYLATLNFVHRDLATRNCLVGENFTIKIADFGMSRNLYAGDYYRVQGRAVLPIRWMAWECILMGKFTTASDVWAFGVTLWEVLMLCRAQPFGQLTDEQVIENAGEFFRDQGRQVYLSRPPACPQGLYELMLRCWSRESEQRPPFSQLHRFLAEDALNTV
row,MFI,Binder
1,17800 MFI,B1
2,12500 MFI,B2
3,6020 MFI,B3
4,14400 MFI,B4
5,7490 MFI,B5
6,8020 MFI,B6

# Molecular target: DDR1 endogenously expressed on human cancer cell lines (T47D, HCT-116, A431) (human) (UniProt Q08345)
# Assay: cell-based or functional assay
"EC50, DDR1 phospho-specific ELISA (T47D)","EC50, cluster formation assay (A431 cells)","Maximal inhibition, DDR1 phospho-specific ELISA (T47D)",NPI of cluster formation at 66 nM (A431 cells),Binder
0.63 nM,4.84 nM,100%,108%,B1
0.43 nM,2.28 nM,100%,110%,B4
0.39 nM,1.82 nM,100%,123%,B5
0.43 nM,0.93 nM,100%,103%,B6
